Assay results as given in US20240317845A1 (NINGBO SANSHENG BIOLOGICAL TECHNOLOGY, published 2024).

Key:
[1] = target: T1, 6-25 fragment of inhibin α-subunits coupled to chicken ovalbumin (OVA) (porcine (fragment said to be 100% …, UniProt P01012 2-386, chemically coupled to chicken ovalbumin (OVA))); assay: indirect ELISA, plate coated with 6-25 fragment-OVA, culture supernatant, replicate 1
T1 construct: also called antigenic peptide; 6-25 fragment of inhibin a subunits
Description: (§1) The 6-25 fragment of inhibin α-subunits coupled to chicken ovalbumin (OVA) were diluted to a sodium bicarbonate solution having a pH9.6 at a concentration of 10 μg/ml, and 100 μl per well was added to the microtiter plate (96 well plate). The plate was set aside overnight at 2-8° C. overnight, and taken out for washing and then patted dry next day, 5% BSA was added into the plate to block, 200 μl per well, and incubated at 37° C. for 1 h;
(§2) The plate was washed and patted dry. 100 μl of the fused culture supernatant was taken under aseptical conditions, added to the microtiter plate, and incubated at 37° C. for 1 h;
(§3) After washing the plate, chromogenic solution was added into the plate, 100 μl per well, and incubated at 37° C. for 5-10 minutes. 50 μl of stop solution was added into the plate, and the absorbance value was read at a wavelength of 460 nm.

[2] = target: T1, 6-25 fragment of inhibin α-subunits …; assay: indirect ELISA, plate coated with 6-25 fragment-OVA, culture supernatant, replicate 2
Description: as §1, §2, §3

T1 sequence (peptide, as listed by the source limits assumed, chain 1 of 2): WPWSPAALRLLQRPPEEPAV
T1 sequence (P01012 2-386 limits assumed, chain 2 of 2): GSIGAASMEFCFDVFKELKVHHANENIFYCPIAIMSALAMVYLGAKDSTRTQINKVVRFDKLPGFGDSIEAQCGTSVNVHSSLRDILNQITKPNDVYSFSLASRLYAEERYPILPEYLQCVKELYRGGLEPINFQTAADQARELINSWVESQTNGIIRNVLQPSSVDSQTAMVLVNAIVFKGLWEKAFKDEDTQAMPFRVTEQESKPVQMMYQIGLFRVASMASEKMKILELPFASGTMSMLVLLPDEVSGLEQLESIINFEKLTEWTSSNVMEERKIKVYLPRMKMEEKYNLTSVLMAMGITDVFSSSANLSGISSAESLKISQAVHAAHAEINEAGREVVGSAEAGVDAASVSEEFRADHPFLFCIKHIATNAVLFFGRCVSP

absorbance at dilution ratio 200 [1]: 3.31 absorbance
absorbance at dilution ratio 400 [1]: 2.8 absorbance
absorbance at dilution ratio 800 [1]: 2.92 absorbance
absorbance at dilution ratio 1600 [1]: 2.28 absorbance
absorbance at dilution ratio 3200 [1]: 1.69 absorbance
absorbance at dilution ratio 6400 [1]: 1.28 absorbance
absorbance at dilution ratio 12800 [1]: 0.823 absorbance
absorbance at dilution ratio 25600 [1]: 0.613 absorbance
absorbance at dilution ratio 51200 [1]: 0.359 absorbance
absorbance at dilution ratio 102400 [1]: 0.263 absorbance
absorbance at dilution ratio 200 [2]: 3.25 absorbance
absorbance at dilution ratio 400 [2]: 2.36 absorbance
absorbance at dilution ratio 800 [2]: 2.08 absorbance
absorbance at dilution ratio 1600 [2]: 1.9 absorbance
absorbance at dilution ratio 3200 [2]: 1.43 absorbance
absorbance at dilution ratio 6400 [2]: 0.831 absorbance
absorbance at dilution ratio 12800 [2]: 0.648 absorbance
absorbance at dilution ratio 25600 [2]: 0.398 absorbance
absorbance at dilution ratio 51200 [2]: 0.256 absorbance
absorbance at dilution ratio 102400 [2]: 0.189 absorbance
B1: anti-inhibin monoclonal antibody 1E5 secreted by hybridoma cell line 1E57 (antibody, V domains shown)
VH: EVKLVESGPELKKPGETVKISCKASGYTFTDYSMHWVKQAPGKGLKWMGWINTETGEPTYADDFKGRFAFSLETSASTAYLQINNLKNEDTATYFCAYYGPPTYSLDYWGQGASVTVSS
VL: DIQMTQTTSSLSASLGDRVTISCRASQGISNYLNWYQQKPDGTVKLLIYYTSRLLSGVPSRFSGSGSGTDYSLTISNLEQEDIATYFCQQGYTLPFTFGSGTKLEIK
notes: Mouse hybridoma antibody; Tested as culture supernatant, as ascites and as Protein G purified ascites antibody; also called 1E57 culture supernatant; ascites-derived monoclonal antibody 1E5
